In patent US20230235074A1 (University of Texas, published 2023):
Each block holds one molecule with its values, some of them ahead of it.

Legend:
[1] = biological target: BST2 as expressed endogenously on the surface of human cell lines (B-LCL, MM1, U266, MCF-10A, MCF7, MDA-MB-231, T47D) (human) (UniProt Q10589); assay: flow cytometry on MM1 cells, mAb 1 ug/ml
[2] = biological target: BST2 as expressed endogenously on the surface of human cell lines (B-LCL, MM1, U266, MCF-10A, MCF7, MDA-MB-231, T47D) (human) (UniProt Q10589); assay: flow cytometry on U266 cells, mAb 1 ug/ml
[3] = biological target: BST2 as expressed endogenously on the surface of human cell lines (B-LCL, MM1, U266, MCF-10A, MCF7, MDA-MB-231, T47D) (human) (UniProt Q10589); assay: flow cytometry on MCF7 cells, mAb 1 ug/ml
[4] = biological target: BST2 as expressed endogenously on the surface of human cell lines (B-LCL, MM1, U266, MCF-10A, MCF7, MDA-MB-231, T47D) (human) (UniProt Q10589); assay: flow cytometry on T47D cells, mAb 1 ug/ml
[5] = biological target: BST2 as expressed endogenously on the surface of human cell lines (B-LCL, MM1, U266, MCF-10A, MCF7, MDA-MB-231, T47D) (human) (UniProt Q10589); assay: flow cytometry on B-LCL cells, mAb 1 ug/ml
[6] = biological target: BST2 as expressed endogenously on the surface of human cell lines (B-LCL, MM1, U266, MCF-10A, MCF7, MDA-MB-231, T47D) (human) (UniProt Q10589); assay: flow cytometry on MCF-10A cells, mAb 1 ug/ml
[7] = biological target: BST2 as expressed endogenously on the surface of human cell lines (B-LCL, MM1, U266, MCF-10A, MCF7, MDA-MB-231, T47D) (human) (UniProt Q10589); assay: flow cytometry on MDA-MB-231 cells, mAb 1 ug/ml
[8] = biological target: BST2 as expressed endogenously on the surface of human cell lines (B-LCL, MM1, U266, MCF-10A, MCF7, MDA-MB-231, T47D) (human) (UniProt Q10589); assay: flow cytometry on MM1 cells, mAb not preincubated
[9] = biological target: BST2 medium isoform (BST2-H, 158 amino acids) expressed on HEK293 transfectants; assay: flow cytometry, mAb 1 ug/ml on HEK293-medium cells
[10] = biological target: BST2 as expressed endogenously on the surface of human cell lines (B-LCL, MM1, U266, MCF-10A, MCF7, MDA-MB-231, T47D) (human) (UniProt Q10589); assay: flow cytometry on MM1 cells, mAb preincubated with Spartan protein
[11] = biological target: BST2 as expressed endogenously on the surface of human cell lines (B-LCL, MM1, U266, MCF-10A, MCF7, MDA-MB-231, T47D) (human) (UniProt Q10589); assay: flow cytometry on MM1 cells, mAb preincubated with recombinant BST2 protein as competitor
[12] = biological target: BST2 long isoform (BST2-D, full length BST2, 180 amino acids) expressed on HEK293 transfectants (human) (UniProt Q10589); assay: flow cytometry, HEK293 long transfectant, 1 ug/ml antibody, APC-conjugated secondary antibody
BST2 long isoform (BST2-D, full length BST2, 180 amino acids) expressed on HEK293 transfectants (human), sequence (Q10589 1-161 limits assumed): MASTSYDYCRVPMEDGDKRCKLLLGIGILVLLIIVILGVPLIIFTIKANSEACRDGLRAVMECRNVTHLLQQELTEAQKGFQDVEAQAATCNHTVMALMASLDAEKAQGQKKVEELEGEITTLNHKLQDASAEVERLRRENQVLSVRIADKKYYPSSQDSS

[13] = biological target: BST2 as expressed endogenously on the surface of human cell lines (B-LCL, MM1, U266, MCF-10A, MCF7, MDA-MB-231, T47D) (human) (UniProt Q10589); assay: flow cytometry, MCF7 cells, APC-conjugated secondary antibody (the text prints 34.7% for the same panel)
[14] = biological target: BST2 in human tissue microarray cores; assay: immunohistochemistry, tissue microarray #72070, antigen retrieval H1; Placenta: 0 positive of 1 tested specimen
BST2 in human tissue microarray cores, sequence (chain, as listed by the source limits assumed): as the sequence (Q10589 1-161 limits assumed) above

[15] = biological target: BST2 as expressed endogenously on the surface of human cell lines (B-LCL, MM1, U266, MCF-10A, MCF7, MDA-MB-231, T47D) (human) (UniProt Q10589); assay: flow cytometry dot plot, T47D-WT cells, 26F8 at 2 ug/ml and APC-conjugated secondary antibody; Q4 (unstained) 2.71
[16] = biological target: BST2 in human tissue microarray cores; assay: immunohistochemistry, tissue microarray #72070, antigen retrieval H1; BIDC stroma: 0 positive of 40 tested specimens
[17] = biological target: BST2 in human tissue microarray cores; assay: immunohistochemistry, tissue microarray #72070, antigen retrieval H1; Breast stroma: 0 positive of 8 tested specimens
[18] = biological target: BST2 in human tissue microarray cores; assay: immunohistochemistry, tissue microarray #72070, antigen retrieval H1; Normal breast: 0 positive of 8 tested specimens
[19] = biological target: BST2 in human tissue microarray cores; assay: immunohistochemistry, tissue microarray #72070, antigen retrieval H1; Placenta stroma: 0 positive of 1 tested specimen
[20] = biological target: BST2 in human tissue microarray cores; assay: immunohistochemistry, tissue microarray #78070 (normal tissues), antigen retrieval H1; Parenchymal: 0 positive of 7 tested
[21] = biological target: BST2 as expressed endogenously on the surface of human cell lines (B-LCL, MM1, U266, MCF-10A, MCF7, MDA-MB-231, T47D) (human) (UniProt Q10589); assay: flow cytometry dot plot, T47D-NS (non-silencing transduction) cells, 26F8 at 2 ug/ml and APC-conjugated secondary antibody
[22] = biological target: Recombinant human BST2 protein (Catalog number 13370-H07H, Sino Biological) (human) (UniProt Q10589); assay: BLI (Octet RED384), mAb 5 ug/ml captured on anti-mouse IgG Fc (AMC) biosensors, BST2 protein 15.625-1000 nM, 1:1 model, global fit
Recombinant human BST2 protein (Catalog number 13370-H07H, Sino Biological) (human), sequence (Q10589 49-161 limits assumed): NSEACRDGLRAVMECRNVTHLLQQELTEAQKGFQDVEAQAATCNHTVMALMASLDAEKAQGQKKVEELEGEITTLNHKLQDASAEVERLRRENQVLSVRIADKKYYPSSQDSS

[23] = biological target: BST2 as expressed endogenously on the surface of human cell lines (B-LCL, MM1, U266, MCF-10A, MCF7, MDA-MB-231, T47D) (human) (UniProt Q10589); assay: flow cytometry dot plot, T47D cells transduced with BST2-silencing shRNA, 26F8 at 2 ug/ml and APC-conjugated secondary antibody
[24] = biological target: BST2 as expressed endogenously on the surface of human cell lines (B-LCL, MM1, U266, MCF-10A, MCF7, MDA-MB-231, T47D) (human) (UniProt Q10589); assay: flow cytometry dot plot, T47D-NS (non-silencing transduction) cells, 26F8 at 2 ug/ml and APC-conjugated secondary antibody; Q3 6.94, Q4 21.4
[25] = biological target: BST2 as expressed endogenously on the surface of human cell lines (B-LCL, MM1, U266, MCF-10A, MCF7, MDA-MB-231, T47D) (human) (UniProt Q10589); assay: flow cytometry dot plot, T47D cells transduced with BST2-silencing shRNA, 26F8 at 2 ug/ml and APC-conjugated secondary antibody; Q3 58.1, Q4 26.6
[26] = biological target: T1, BST2 long isoform (BST2-D, full length BST2, 180 amino acids) expressed on HEK293 transfectants (human, UniProt Q10589 1-161); assay: flow cytometry, hybridoma supernatant on HEK293-long cells
T1 construct: also called HEK293-long; HEK293 WT-BST2
T1 sequence (Q10589 1-161 limits assumed): as the sequence (Q10589 1-161 limits assumed) above
Procedure: For flow cytometry assays, cells were detached using 0.05% trypsin-EDTA, counted, washed and resuspend with FACS Buffer (PBS, 2% FBS, 2 mM EDTA). 2×10⁵ cells in 100 ul/well were placed in U-bottom 96-well plate and centrifuged (1000 RPM/3 min/4° C.). The buffer was discarded and 100 ul of the previously collected supernatants with selected monoclonal antibodies were added to the wells and incubated on ice for 30 minutes. After incubation, the plate was washed three times with FACS buffer and 50 ul of diluted (1/250) secondary antibody (Donkey anti-mouse Allophycocyanin (APC) conjugated) were added to the wells and incubated on ice for 20 minutes protected from light. The final wash was repeated 4 times, and the samples were transferred and analyzed at the South Campus Flow Cytometry & Cell Sorting Core Laboratory at MD Anderson Cancer Center. FACS data were analyzed with FlowJo™ Software—for Windows (Version 10.6.1. Ashland, Oreg.: Becton, Dickinson and Company; 2020).

[27] = biological target: T2, BST2 long isoform peptide (BST2-D peptide), positions 133-156 (human); assay: ELISA dilution assay, plate coated with BST2 peptide alone, hybridoma supernatant undiluted and 1/15, 1/225, 1/3375, OD 450 nm (axis unlabelled on the sheet)
T2 construct: Synthetic 24-mer; the free peptide (not KLH conjugated) coated the ELISA plates; also called BST2-Long (D) peptide; BST2 peptide
T2 peptide: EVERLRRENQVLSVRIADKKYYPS
Procedure: FIG. 5. Dilution assay. 26 positive clones were tested at serial dilutions as described under methods. Sixteen clones with the highest OD450 nm signal (those with squares around their names) were selected for further characterization. LA1-LA16 are clones picked at the first round of colony pickup; BM1-BM10 clones picked at the second round of colony pickup. PC is the positive control using anti-BST2 mAb (Clone 26F8) 1 ug/ml which recognizes all isoforms. Plates were coated with BST2 peptide alone.
To select the hybridomas capable of producing specific monoclonal antibodies against the BST2-D peptide, ELISA was performed. ELISA plates were coated with a 100 ul coating buffer, containing the BST2-D peptide in a concentration of 1 ug/ml, and incubated overnight at 4° C. Next day, ELISA plates were washed three times with PBST (PBS containing 0.05% v/v Tween®-20) and blocked with 100 ul of blocking buffer (PBS, 1% w/v BSA). After 1-hour blocking at room temperature, 50 ul supernatant from each of the 563 colonies were added to individual wells as the primary antibodies. Anti-BST2 mAb (Clone 26F8) [eBioscience] was used as a positive control and blank wells with secondary antibody only were performed in triplicates. Incubation proceeded for 1 hour followed by three washes. […] The reaction was stopped with H₂SO₄ 0.2N and the OD absorbance values were read at 450 nm. […]

BST2 as expressed endogenously on the surface of human cell lines (B-LCL, MM1, U266, MCF-10A, MCF7, MDA-MB-231, T47D) (human), sequence (Q10589 1-161, stated change not applied): as the sequence (Q10589 1-161 limits assumed) above

percentage of cell staining [1]: 99.6% | percentage of cell staining [2]: 97.1% | percentage of cell staining [3]: 34.7% | percentage of cell staining [4]: 96.6% | percentage of cell staining [5]: 99.7% | percentage of cell staining [6]: 27.7% | percentage of cell staining [7]: 28.4% | percentage of stained cells [8]: 98.2% | percentage of cells stained [9]: 96.7% | percentage of stained cells [10]: 98.1% | percentage of stained cells [11]: 2.6% | percent of cells stained [12]: 98.7% | percent of cells stained [13]: 37.7% | detectable rate (% of tested specimens positive) [14]: 0% | percent of cells in quadrant Q1 (APC positive, GFP negative) [15]: 97.2% | detectable rate (% of tested specimens positive) [16]: 0% | detectable rate (% of tested specimens positive) [17]: 0% | detectable rate (% of tested specimens positive) [18]: 0% | detectable rate (% of tested specimens positive) [19]: 0% | detectable rate (% of tested specimens positive) [20]: 0% | percent of cells in quadrant Q1 (APC positive, GFP negative) [21]: 13.1% | Kd [22]: 34.2 nM | koff [22]: 0.00132 s⁻¹ | kon [22]: 38600 M⁻¹ s⁻¹ | percent of cells in quadrant Q1 (APC positive, GFP negative) [23]: 6.09% | percent of cells in quadrant Q2 (APC positive, GFP positive) [24]: 58.5% | percent of cells in quadrant Q2 (APC positive, GFP positive) [25]: 9.27%
Molecule: anti-BST2 monoclonal antibody clone 26F8 (eBioscience)

percentage of cells stained [26]: 70.9% | binding result [27]: binds
B1: LA1 antibody (antibody, IgG1, V domains shown)
VH: EVQLQQSGPELVKPGASVKISCKTSGYTFTEDTMHWVKQSHGKSLEWIGGINPNKGGTSYNQKFKDKATLTVDKSSSTAYMELRSLTSEDSAVYYCATLVDYWGQGTTLTVSS
VL: DIVMTQSQKFMSTSVGDRVSVTCKASQNVGTNVAWYQQKPGQSPKALIHSASYRYSGVPDRFTGSGSGTDFTLTISNVQSEDLAEYFCQQYNSYPLTFGAGTKLELK
notes: Mouse hybridoma antibody, isotype IgG1, kappa; Tested as hybridoma supernatant

percentage of cells stained [26]: 39.8%
B2: BM7 antibody (antibody, IgG1, V domains shown)
VH: QVTLKESGPGILKPSQTLSLTCSFSGFSLSTSGVGVGWIRQPSGKGLEWLAHIWWDDDEYYNPSLKSQLTISKDTSRNQVFLKITSVDTSDTATYYCARRYYGDAMDYWGQGTAVTVSS
VL: DVVMTQTPVSLPVSLGDQASISCRSTQSLVHSNGHTYLHWYLQKPGQSPKLLIYKVSNRFSGVPDRFSGTGSGTDFTLKISRVEAEDLGVYFCSQSTHVPYTFGGGTKLEIK
notes: Tested as hybridoma supernatant
